This series has as its target DDX43-KI (Mus musculus, UniProt D3Z6P9 1-646, E395Q). Description: EMSA; EMSA: 10 nM biotin-RNA, 50 mM Tris-HCl pH 7.5, 100 mM KCl, 2.5% glycerol, 0.05% NP-40, 4 mM EDTA, 1 mM DTT, RiboLock 2 U, 37 C 30 min; 8% native TBE PAGE at 4 C; G4 folded in 50 mM Tris-HCl pH 7.5, 150 mM KCl, 0.1 mM EDTA. To be noted: protein: recombinant; tags: His tag (Ni-NTA, pET28a); label: 3' biotin; single strand.

Sequence of DDX43-KI (D3Z6P9 entry or part of it E395Q): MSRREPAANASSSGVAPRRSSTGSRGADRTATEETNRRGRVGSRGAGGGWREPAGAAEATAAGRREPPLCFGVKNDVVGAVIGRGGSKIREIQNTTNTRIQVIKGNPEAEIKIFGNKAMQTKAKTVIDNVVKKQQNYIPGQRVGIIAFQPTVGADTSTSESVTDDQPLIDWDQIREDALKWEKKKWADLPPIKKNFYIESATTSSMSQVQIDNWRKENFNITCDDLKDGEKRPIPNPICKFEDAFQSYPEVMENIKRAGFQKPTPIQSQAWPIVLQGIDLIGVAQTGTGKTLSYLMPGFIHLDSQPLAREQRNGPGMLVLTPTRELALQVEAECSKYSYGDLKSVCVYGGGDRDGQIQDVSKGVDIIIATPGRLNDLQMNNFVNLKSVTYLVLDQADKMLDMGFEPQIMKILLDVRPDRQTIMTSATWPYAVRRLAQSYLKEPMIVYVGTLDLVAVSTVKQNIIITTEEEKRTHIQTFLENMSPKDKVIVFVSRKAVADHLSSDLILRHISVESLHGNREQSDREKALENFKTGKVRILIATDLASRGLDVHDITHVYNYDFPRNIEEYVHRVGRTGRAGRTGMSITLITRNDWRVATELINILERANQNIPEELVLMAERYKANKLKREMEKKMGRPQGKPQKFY

For the molecule ACCGCUGCCGUCGCUCCG (ssRNA) [ssRNA], the binding result was “no binding”.

The record behind these values is PMC10294715, “Single-cell RNA-seq uncovers dynamic processes orchestrated by RNA-binding protein DDX43 in chromatin remodeling during spermiogenesis”.
